Ends that are not written are not given here.
How the values were obtained:
[1] = target: T1, FX activation peptide 12-mer PDSITWKPYDAA (human); assay: peptide ELISA
T1 peptide: PDSITWKPYDAA-biotin
Method in brief: (§1)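 Nanobodies (FLAG-tagged) or IgG antibodies, 2 μg/mL, incubated 1 h on C-terminally biotinylated peptide captured via streptavidin, washing buffer pH 8.60 containing CaCl₂ and Tween 20. Read-out: HRP-conjugated secondary antibody with TMB colour development.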

[2] = target: T2, FX activation peptide 12-mer APDSITWKPYDA (human); assay: peptide ELISA
T2 peptide: APDSITWKPYDA-biotin
Method in brief: as §1

[3] = target: T3, FX activation peptide 12-mer KPYDAADLDPTE (human); assay: peptide ELISA
T3 peptide: KPYDAADLDPTE-biotin
Method in brief: as §1

[4] = target: T4, FX activation peptide 12-mer QATSSSGEAPDS (human); assay: peptide ELISA
T4 peptide: QATSSSGEAPDS-biotin
Method in brief: as §1

[5] = target: T5, FX activation peptide 12-mer ENPFDLLDFNQT (human); assay: peptide ELISA
T5 peptide: ENPFDLLDFNQT-biotin
Method in brief: as §1

[6] = target: T6, FX activation peptide 12-mer AADLDPTENPFD (human); assay: peptide ELISA
T6 peptide: AADLDPTENPFD-biotin
Method in brief: as §1

[7] = target: T7, FX activation peptide 12-mer SITWKPYDAADL (human); assay: peptide ELISA
T7 peptide: SITWKPYDAADL-biotin
Method in brief: as §1

[8] = target: T8, FX activation peptide 12-mer ITWKPYDAADLD (human); assay: peptide ELISA
T8 peptide: ITWKPYDAADLD-biotin
Method in brief: as §1

[9] = target: T9, FX activation peptide 12-mer DSITWKPYDAAD (human); assay: peptide ELISA
T9 peptide: DSITWKPYDAAD-biotin
Method in brief: as §1

[10] = target: T10, FX activation peptide 12-mer DLLDFNQTQPER (human); assay: peptide ELISA
T10 peptide: DLLDFNQTQPER-biotin
Method in brief: as §1

[11] = target: T11, FX activation peptide 12-mer PYDAADLDPTEN (human); assay: peptide ELISA
T11 peptide: PYDAADLDPTEN-biotin
Method in brief: as §1

[12] = target: T12, FX activation peptide 12-mer TQPERGDNNLTR (human); assay: peptide ELISA
T12 peptide: TQPERGDNNLTR-biotin
Method in brief: as §1

[13] = target: T13, FX activation peptide 12-mer EAPDSITWKPYD (human); assay: peptide ELISA
T13 peptide: EAPDSITWKPYD-biotin
Method in brief: as §1

[14] = target: T14, FX activation peptide 12-mer SGEAPDSITWKP (human); assay: peptide ELISA
T14 peptide: SGEAPDSITWKP-biotin
Method in brief: as §1

[15] = target: T15, FX activation peptide 12-mer NPFDLLDFNQTQ (human); assay: peptide ELISA
T15 peptide: NPFDLLDFNQTQ-biotin
Method in brief: as §1

[16] = target: T16, FX activation peptide 12-mer LDFNQTQPERGD (human); assay: peptide ELISA
T16 peptide: LDFNQTQPERGD-biotin
Method in brief: as §1

[17] = target: T17, FX activation peptide 12-mer NQTQPERGDNNL (human); assay: peptide ELISA
T17 peptide: NQTQPERGDNNL-biotin
Method in brief: as §1

[18] = target: T18, FX activation peptide 12-mer SSSGEAPDSITW (human); assay: peptide ELISA
T18 peptide: SSSGEAPDSITW-biotin
Method in brief: as §1

[19] = target: T19, FX activation peptide 12-mer GEAPDSITWKPY (human); assay: peptide ELISA
T19 peptide: GEAPDSITWKPY-biotin
Method in brief: as §1

[20] = target: T20, FX activation peptide 12-mer ADLDPTENPFDL (human); assay: peptide ELISA
T20 peptide: ADLDPTENPFDL-biotin
Method in brief: as §1

[21] = target: T21, FX activation peptide 12-mer AQATSSSGEAPD (human); assay: peptide ELISA
T21 peptide: AQATSSSGEAPD-biotin
Method in brief: as §1

[22] = target: T22, FX activation peptide 12-mer DFNQTQPERGDN (human); assay: peptide ELISA
T22 peptide: DFNQTQPERGDN-biotin
Method in brief: as §1

[23] = target: T23, FX activation peptide 12-mer VAQATSSSGEAP (human); assay: peptide ELISA
T23 peptide: VAQATSSSGEAP-biotin
Method in brief: as §1

[24] = target: T24, FX activation peptide 12-mer YDAADLDPTENP (human); assay: peptide ELISA
T24 peptide: YDAADLDPTENP-biotin
Method in brief: as §1

[25] = target: T25, FX activation peptide 12-mer TWKPYDAADLDP (human); assay: peptide ELISA
T25 peptide: TWKPYDAADLDP-biotin
Method in brief: as §1

[26] = target: T26, FX activation peptide 12-mer DLDPTENPFDLL (human); assay: peptide ELISA
T26 peptide: DLDPTENPFDLL-biotin
Method in brief: as §1

[27] = target: T27, FX activation peptide 12-mer LDPTENPFDLLD (human); assay: peptide ELISA
T27 peptide: LDPTENPFDLLD-biotin
Method in brief: as §1

[28] = target: T28, FX activation peptide 12-mer FNQTQPERGDNN (human); assay: peptide ELISA
T28 peptide: FNQTQPERGDNN-biotin
Method in brief: as §1

[29] = target: T29, FX activation peptide 12-mer DAADLDPTENPF (human); assay: peptide ELISA
T29 peptide: DAADLDPTENPF-biotin
Method in brief: as §1

[30] = target: T30, FX activation peptide 12-mer SVAQATSSSGEA (human); assay: peptide ELISA
T30 peptide: SVAQATSSSGEA-biotin
Method in brief: as §1

[31] = target: T31, FX activation peptide 12-mer FDLLDFNQTQPE (human); assay: peptide ELISA
T31 peptide: FDLLDFNQTQPE-biotin
Method in brief: as §1

[32] = target: human plasma-derived Factor X zymogen (human, UniProt P00742 41-179; P00742 183-488); assay: cell-based or functional assay
Sequence of human plasma-derived Factor X zymogen (P00742 41-179, chain 1 of 2): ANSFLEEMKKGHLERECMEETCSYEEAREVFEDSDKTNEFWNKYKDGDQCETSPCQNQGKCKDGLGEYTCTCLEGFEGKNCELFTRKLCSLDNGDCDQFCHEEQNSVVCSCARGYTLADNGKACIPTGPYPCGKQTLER
Sequence of human plasma-derived Factor X zymogen (P00742 183-488, chain 2 of 2): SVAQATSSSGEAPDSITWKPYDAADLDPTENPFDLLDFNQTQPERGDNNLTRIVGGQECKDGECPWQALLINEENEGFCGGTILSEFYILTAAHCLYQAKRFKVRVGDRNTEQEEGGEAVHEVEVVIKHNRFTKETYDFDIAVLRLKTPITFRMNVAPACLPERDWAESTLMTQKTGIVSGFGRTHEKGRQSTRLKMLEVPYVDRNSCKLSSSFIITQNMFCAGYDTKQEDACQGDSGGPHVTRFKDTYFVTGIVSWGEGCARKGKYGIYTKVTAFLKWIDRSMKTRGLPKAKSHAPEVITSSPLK

B1: Nb 730C03 (VHH)
VHH: EVQLVESGGGVVQPGGSLRLSCVASGFTFSDYAMSWVRQAPGKGLEWVSGITSGSGRTYYADSVKGRFTISRDNSKNTVYLQMNSLRPEDTALYYCAAAILRGYRKTYDYWGQGTLVTVSS
notes: monovalent Nanobody; also called Nb 730003; not shown: C-terminal FLAG3 and HIS6 tag
ELISA signal relative to background [1]: 1.24
ELISA signal relative to background [2]: 1.16
ELISA signal relative to background [3]: 1.17
ELISA signal relative to background [4]: 1.14
ELISA signal relative to background [5]: 6.57
ELISA signal relative to background [6]: 1.21
ELISA signal relative to background [7]: 1.18
ELISA signal relative to background [8]: 1.2
ELISA signal relative to background [9]: 1.22
ELISA signal relative to background [10]: 1.18
ELISA signal relative to background [11]: 1.2
ELISA signal relative to background [12]: 1.06
ELISA signal relative to background [13]: 1.24
ELISA signal relative to background [14]: 1.18
ELISA signal relative to background [15]: 2.82
ELISA signal relative to background [16]: 1.14
ELISA signal relative to background [17]: 1.22
ELISA signal relative to background [18]: 1.21
ELISA signal relative to background [19]: 1.24
ELISA signal relative to background [20]: 1.25
ELISA signal relative to background [21]: 1.19
ELISA signal relative to background [22]: 1.16
ELISA signal relative to background [23]: 1.24
ELISA signal relative to background [24]: 1.28
ELISA signal relative to background [25]: 1.26
ELISA signal relative to background [26]: 1.26
ELISA signal relative to background [27]: 1.3
ELISA signal relative to background [28]: 1.16
ELISA signal relative to background [29]: 1.24
ELISA signal relative to background [30]: 1.21
ELISA signal relative to background [31]: 1.28
Increase in FX activation (fold) [32]: 9.2 fold

From patent US20210054097A1 (Novo Nordisk, published 2021)
